Measured values: publication PMC12216690, “MORC2 is a phosphorylation-dependent DNA compaction machine” (Nature Communications, 2024)

How the values were obtained:
MORC2 ATPase = molecular target: T1, MORC2 ATPase (Homo sapiens, UniProt Q9Y6X9 1-603); test: competition; pre-bound; more competitor uptake than WT; EMSA: 20 mM Tris pH 7.4, 75 mM NaCl, 5% glycerol, 0.005% NP-40, 0.5 mM MgCl2, RT 30 min; SPR: 10 mM HEPES pH 7.4, 300 mM NaCl, 3 mM EDTA, 0.05% Tween-20, 20 C; settings: protein: recombinant; tags: N-terminal 6xHis; closed circle
T1 sequence: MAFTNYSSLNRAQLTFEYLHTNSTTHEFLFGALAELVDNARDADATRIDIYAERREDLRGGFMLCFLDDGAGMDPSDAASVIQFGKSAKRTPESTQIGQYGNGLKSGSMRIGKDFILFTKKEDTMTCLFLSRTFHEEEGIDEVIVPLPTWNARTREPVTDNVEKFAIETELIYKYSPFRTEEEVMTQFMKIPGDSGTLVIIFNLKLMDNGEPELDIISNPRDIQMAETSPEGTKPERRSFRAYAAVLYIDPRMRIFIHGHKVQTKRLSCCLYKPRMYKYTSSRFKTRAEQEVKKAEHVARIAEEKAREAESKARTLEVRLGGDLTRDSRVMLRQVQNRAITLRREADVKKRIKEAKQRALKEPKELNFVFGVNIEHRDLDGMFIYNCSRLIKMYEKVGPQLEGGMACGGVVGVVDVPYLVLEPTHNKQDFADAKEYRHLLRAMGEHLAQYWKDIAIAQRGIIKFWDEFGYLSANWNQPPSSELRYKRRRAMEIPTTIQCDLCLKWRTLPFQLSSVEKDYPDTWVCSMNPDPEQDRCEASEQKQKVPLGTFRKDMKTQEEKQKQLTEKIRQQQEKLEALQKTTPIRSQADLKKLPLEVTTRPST

MORC2 WT = molecular target: T2, MORC2 WT (Homo sapiens, UniProt Q9Y6X9 1-1032); test: competition; pre-bound; resists 90 bp competitor (clamp); EMSA: 20 mM Tris pH 7.4, 75 mM NaCl, 5% glycerol, 0.005% NP-40, 0.5 mM MgCl2, RT 30 min; SPR: 10 mM HEPES pH 7.4, 300 mM NaCl, 3 mM EDTA, 0.05% Tween-20, 20 C; settings: protein: recombinant; tags: C-terminal 3C site-twin StrepII; chain copies: 2; closed circle
T2 sequence: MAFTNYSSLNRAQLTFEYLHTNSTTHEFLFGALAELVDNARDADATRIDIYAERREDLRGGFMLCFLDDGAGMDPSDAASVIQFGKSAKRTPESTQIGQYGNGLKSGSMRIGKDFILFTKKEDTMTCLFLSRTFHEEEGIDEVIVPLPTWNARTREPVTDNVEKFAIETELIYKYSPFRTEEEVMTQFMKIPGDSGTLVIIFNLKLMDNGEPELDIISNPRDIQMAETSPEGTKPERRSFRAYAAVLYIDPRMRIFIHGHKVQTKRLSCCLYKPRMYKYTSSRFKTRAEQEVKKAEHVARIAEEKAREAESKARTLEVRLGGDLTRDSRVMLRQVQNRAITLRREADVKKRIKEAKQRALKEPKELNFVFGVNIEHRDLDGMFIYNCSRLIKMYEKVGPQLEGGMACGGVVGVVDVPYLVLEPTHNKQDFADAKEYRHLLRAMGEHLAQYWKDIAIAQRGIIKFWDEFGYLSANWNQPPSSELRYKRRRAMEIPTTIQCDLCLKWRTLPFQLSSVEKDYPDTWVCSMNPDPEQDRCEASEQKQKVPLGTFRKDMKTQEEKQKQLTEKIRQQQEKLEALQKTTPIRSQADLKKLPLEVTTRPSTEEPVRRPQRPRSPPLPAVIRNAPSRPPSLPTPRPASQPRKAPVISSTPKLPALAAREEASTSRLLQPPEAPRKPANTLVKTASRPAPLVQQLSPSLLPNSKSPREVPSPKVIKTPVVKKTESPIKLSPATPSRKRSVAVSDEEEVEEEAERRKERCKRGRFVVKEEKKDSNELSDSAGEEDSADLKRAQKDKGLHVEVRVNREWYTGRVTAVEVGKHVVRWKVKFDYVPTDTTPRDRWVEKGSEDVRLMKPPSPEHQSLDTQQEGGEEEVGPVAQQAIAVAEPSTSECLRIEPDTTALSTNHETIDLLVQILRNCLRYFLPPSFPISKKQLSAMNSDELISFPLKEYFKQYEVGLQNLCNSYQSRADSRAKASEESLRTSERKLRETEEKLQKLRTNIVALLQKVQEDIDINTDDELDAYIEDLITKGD

B1: 101 bp circular dsDNA (dsDNA)
DNA 1: CGGTCGTTTAGCATACTAATCTGAGAGTCCGACGGTCGTCAGTCAGTCATGACTTCACAGAGGAAGGGCCAGTATCCTGTCCAAACTTGATGCTCGAATTC
DNA 2: GAATTCGAGCATCAAGTTTGGACAGGATACTGGCCCTTCCTCTGTGAAGTCATGACTGACTGACGACCGTCGGACTCTCAGATTAGTATGCTAAACGACCG
MORC2 ATPase
  binding result: binds
MORC2 WT
  binding result: binds
